The term Kd denotes the concentration at which binding is half-saturated. A lower Kd goes with higher affinity.

Where two headings read alike, the source gives them in different places.

Assay [1] addresses T1, native Semliki Forest virus (SFV) virion (Semliki Forest virus). The experiment in a line: SPR. Background: In SPR one partner is held on a chip, and binding of the other changes the refractive index at the surface.
In assay [2] the target is T1, native Semliki Forest virus (SFV) virion. The experiment in a line: SPR. This is another data set of the same source.

B1: LA1-3-Fc (Fc fusion)
chain: not shown
As to B1, the affinity in assay [1], expressed as Kd, was 523 nM.

As for MRTCRIHEISCGAHSTQCIPVSWRCDGENDCDSGEDEENCGNI (Fc fusion) [LA3-Fc], the Kd in assay [2] worked out at 1170 nM; in assay [1], 1020 nM.

In assay [2], MRTCRIHEISCGAHSTACIPVSWRCDGENDCDSGEDEENCGNI (Fc fusion) [LA3-Fc Q126A] yielded a Kd of 11700 nM.

MRTCAIHEISCGAHSTQCIPVSWRCDGENDCDSGEDEENCGNI (Fc fusion) [LA3-Fc R114A] gave a Kd in assay [2] of 1580 nM.

The record behind these values is article PMC11661604 (2024).
